These results are taken from US20250154198A1, “PEPTIDE INHIBITORS OF INTERLEUKIN-23 RECEPTOR” (Zealand Pharma A/S, priority 2021, published 2025).

Like-named read-outs stand apart in the source and are kept apart here. *1 amine or outer side, *2 acyl side, *3 side chain or, on linkers, in order; H or OH if unused. Bridges are numbered along the chain shown (N, C = ends). Primed or numbered codes have the meaning given here. Where no end group is shown, it is not given here. [ ]: non-standard residue; d: D form. 4‑Aminomethyl‑phenylacetyl = 4-aminomethyl-phenylacetyl unit, its amine closes the lactam, O=C(Cc1ccc(CN[*:1])cc1)[*:2]; 1,3‑dibromopropan‑2‑one(3) = linker giving 1,3-dithio-propan-2-one bridge -SCH2C(=O)CH2S- between Cys; 4‑Aminomethyl‑phenylacetyl″ = N-terminal cap residue, O=C(Cc1ccc(CN[*:1])cc1)[*:2]; 2Nal = N[C@@H](Cc1ccc2ccccc2c1)C(=O)O; AEF = NCCOc1ccc(C[C@H](N)C(=O)O)cc1; 3Pal = N[C@@H](Cc1cccnc1)C(=O)O; αMeL = CC(C)C[C@](C)(N)C(=O)O; CH2COCH2 = O=C(C[*:1])C[*:2]; αMeK = C[C@](N)(CCCCN)C(=O)O; 3Amb = NCc1cccc(C(=O)O)c1; Dab = NCC[C@H](N)C(=O)O A value given as a limit tells only on which side of the number the result lay.

In test [1] the target is T1, human IL-23R endogenously expressed on DB cells (CRL-2289) (human, UniProt Q5VWK5 24-629).
T1 sequence (looked up): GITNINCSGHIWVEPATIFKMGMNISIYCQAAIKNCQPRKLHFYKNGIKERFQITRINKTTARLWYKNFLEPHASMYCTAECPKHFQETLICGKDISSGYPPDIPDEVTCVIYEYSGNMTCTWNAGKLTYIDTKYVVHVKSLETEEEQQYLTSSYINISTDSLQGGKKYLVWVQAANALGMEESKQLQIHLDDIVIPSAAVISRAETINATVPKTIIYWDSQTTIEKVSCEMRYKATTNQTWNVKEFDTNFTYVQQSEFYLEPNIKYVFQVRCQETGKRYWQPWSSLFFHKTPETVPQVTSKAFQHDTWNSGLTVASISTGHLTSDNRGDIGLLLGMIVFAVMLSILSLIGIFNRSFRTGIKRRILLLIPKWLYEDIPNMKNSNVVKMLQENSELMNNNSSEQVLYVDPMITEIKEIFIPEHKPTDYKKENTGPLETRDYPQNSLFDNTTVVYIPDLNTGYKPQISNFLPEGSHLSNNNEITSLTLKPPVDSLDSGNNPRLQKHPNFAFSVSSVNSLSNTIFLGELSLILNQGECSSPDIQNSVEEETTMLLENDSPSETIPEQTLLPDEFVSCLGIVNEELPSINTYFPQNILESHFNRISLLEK
Briefly: cell-based or functional assay.

Test [2] concerns the target T2, Nluc-IL23R fusion protein (human, UniProt Q5VWK5 22-629).
T2 construct: range 22-629; Stably expressed in HEK293 cells; also called hIL-23R; human IL-23R fused to a Nanoluc luciferase enzyme; not shown: Nanoluc luciferase (Promega N1371 plasmid) at the N-terminus
T2 sequence (looked up): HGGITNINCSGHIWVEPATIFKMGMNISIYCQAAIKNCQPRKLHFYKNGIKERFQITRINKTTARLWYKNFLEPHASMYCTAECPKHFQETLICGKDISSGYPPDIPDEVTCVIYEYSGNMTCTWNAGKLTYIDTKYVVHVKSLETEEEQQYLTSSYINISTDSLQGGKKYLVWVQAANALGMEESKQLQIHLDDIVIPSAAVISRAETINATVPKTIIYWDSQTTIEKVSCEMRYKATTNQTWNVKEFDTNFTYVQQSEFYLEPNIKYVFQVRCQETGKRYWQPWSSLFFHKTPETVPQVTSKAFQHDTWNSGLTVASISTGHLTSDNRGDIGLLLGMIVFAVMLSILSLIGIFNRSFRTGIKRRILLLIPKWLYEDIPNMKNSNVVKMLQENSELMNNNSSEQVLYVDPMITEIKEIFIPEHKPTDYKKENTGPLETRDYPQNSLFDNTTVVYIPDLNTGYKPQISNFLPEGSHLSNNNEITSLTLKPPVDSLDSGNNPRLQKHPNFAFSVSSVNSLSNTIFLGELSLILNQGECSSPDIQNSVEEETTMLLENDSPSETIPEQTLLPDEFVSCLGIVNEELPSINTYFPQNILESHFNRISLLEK
Briefly: BRET displacement of TAMRA-labelled peptide, Nluc-IL23R membranes. On the technique in general: BRET reads energy transfer from a luciferase to a nearby fluorophore.

Test [3] concerns the target T2, Nluc-IL23R fusion protein. Described as above. This is another data set of the same source.

B1: Compound 52 (peptide)
peptide: [4‑Aminomethyl‑phenylacetyl]SCWQC[AEF][2Nal][αMeL]ER-NH2
modifications: lactam N-10; linker 3-6 via CH2COCH2
SMILES: CC(C)C[C@]1(C)NC(=O)[C@H](Cc2ccc3ccccc3c2)NC(=O)[C@H](Cc2ccc(OCCN)cc2)NC(=O)[C@@H]2CSCC(=O)CSC[C@H](NC(=O)[C@H](CO)NC(=O)Cc3ccc(cc3)CNC(=O)CC[C@@H](C(=O)N[C@@H](CCCNC(=N)N)C(N)=O)NC1=O)C(=O)N[C@@H](Cc1c[nH]c3ccccc13)C(=O)N[C@@H](CCC(N)=O)C(=O)N2
A word on the Ki: it is the equilibrium dissociation constant of an inhibitor or competing ligand from its target. A low value points to higher affinity. Turning to B1, in test [1], the “IC50 (pSTAT3)” value is 7.85 nM. This molecule also yielded a Ki in test [2] of 0.0475 nM.

B2: Compound 82 (peptide)
peptide: [4‑Aminomethyl‑phenylacetyl]SCWQC[AEF][2Nal][αMeL]E[Dab]-NH2
modifications: lactam (positions not given here); linker 3-6 via CH2COCH2; not fully specified (bridges); printed as [4-Aminomethyl-phenylacetyl](1c)*SC(2a)WQC(2a)[Y(2-aminoethoxy)][2-Nal][2-Me-Leu]E(1c)[Dab]-[NH2]
Turning to B2, the “IC50 (pSTAT3)” value in test [1] is 11.1 nM. In test [2], this molecule yielded a Ki of 0.0665 nM.

As for [4‑Aminomethyl‑phenylacetyl]SEWQ[Dab][AEF][2Nal][αMeL]E[Dab]-NH2 (lactam N-10, 3-6) [Compound 125], the “IC50 (pSTAT3)” value in test [1] turned out to be 21.2 nM. In test [2], this molecule registered a Ki of 0.599 nM.

B3: Compound 122 (peptide)
peptide: [4‑Aminomethyl‑phenylacetyl″]SEWQ[Dab][AEF][2Nal][αMeL]E[Dab][3Pal]-NH2
modifications: lactam N-10, 3-6
SMILES: CC(C)C[C@]1(C)NC(=O)[C@H](Cc2ccc3ccccc3c2)NC(=O)[C@H](Cc2ccc(OCCN)cc2)NC(=O)[C@@H]2CCNC(=O)CC[C@H](NC(=O)[C@H](CO)NC(=O)Cc3ccc(cc3)CNC(=O)CC[C@@H](C(=O)N[C@@H](CCN)C(=O)N[C@@H](Cc3cccnc3)C(N)=O)NC1=O)C(=O)N[C@@H](Cc1c[nH]c3ccccc13)C(=O)N[C@@H](CCC(N)=O)C(=O)N2
On to B3, for which the “IC50 (pSTAT3)” value in test [1] was determined as 27.7 pM. This molecule displayed a Ki in test [2] of 0.00541 nM.

B4: Compound 61 (peptide)
peptide: Ac-DESCWQCW[2Nal][αMeK]KENG-NH2
modifications: lactam 2-11; linker 4-7 via CH2COCH2
SMILES: CC(=O)N[C@@H](CC(=O)O)C(=O)N[C@H]1CCC(=O)NCCCC[C@@H](C(=O)N[C@@H](CCC(=O)O)C(=O)N[C@@H](CC(N)=O)C(=O)NCC(N)=O)NC(=O)[C@](C)(CCCCN)NC(=O)[C@H](Cc2ccc3ccccc3c2)NC(=O)[C@H](Cc2c[nH]c3ccccc23)NC(=O)[C@@H]2CSCC(=O)CSC[C@H](NC(=O)[C@H](CO)NC1=O)C(=O)N[C@@H](Cc1c[nH]c3ccccc13)C(=O)N[C@@H](CCC(N)=O)C(=O)N2
With B4, the “IC50 (pSTAT3)” value in test [1] was greater than 1 µM. Moreover, the Ki in test [3] is 436 nM.

B5: Compound 60 (peptide)
peptide: Ac-DESCWQCW[2Nal][αMeL]KG-NH2
modifications: lactam 2-11; linker 4-7 via CH2COCH2
SMILES: CC(=O)N[C@@H](CC(=O)O)C(=O)N[C@H]1CCC(=O)NCCCC[C@@H](C(=O)NCC(N)=O)NC(=O)[C@](C)(CC(C)C)NC(=O)[C@H](Cc2ccc3ccccc3c2)NC(=O)[C@H](Cc2c[nH]c3ccccc23)NC(=O)[C@@H]2CSCC(=O)CSC[C@H](NC(=O)[C@H](CO)NC1=O)C(=O)N[C@@H](Cc1c[nH]c3ccccc13)C(=O)N[C@@H](CCC(N)=O)C(=O)N2
On to B5, for which, in test [1], the “IC50 (pSTAT3)” value was 666 nM. The molecule also yielded an inhibition constant (Ki) in test [3] of 212 nM.

B6: Compound 59 (peptide)
peptide: Ac-DESCWQCW[2Nal][αMeL]KNG-NH2
modifications: lactam 2-11; linker 4-7 via CH2COCH2
SMILES: CC(=O)N[C@@H](CC(=O)O)C(=O)N[C@H]1CCC(=O)NCCCC[C@@H](C(=O)N[C@@H](CC(N)=O)C(=O)NCC(N)=O)NC(=O)[C@](C)(CC(C)C)NC(=O)[C@H](Cc2ccc3ccccc3c2)NC(=O)[C@H](Cc2c[nH]c3ccccc23)NC(=O)[C@@H]2CSCC(=O)CSC[C@H](NC(=O)[C@H](CO)NC1=O)C(=O)N[C@@H](Cc1c[nH]c3ccccc13)C(=O)N[C@@H](CCC(N)=O)C(=O)N2
In the case of B6, the “IC50 (pSTAT3)” value in test [1] turned out to be 297 nM. Moreover, the Ki in test [3] is 139 nM.

B7: Compound 58 (peptide)
peptide: Ac-DESCWQCW[2Nal][αMeL]KENG-NH2
modifications: lactam 2-11; linker 4-7 via CH2COCH2
SMILES: CC(=O)N[C@@H](CC(=O)O)C(=O)N[C@H]1CCC(=O)NCCCC[C@@H](C(=O)N[C@@H](CCC(=O)O)C(=O)N[C@@H](CC(N)=O)C(=O)NCC(N)=O)NC(=O)[C@](C)(CC(C)C)NC(=O)[C@H](Cc2ccc3ccccc3c2)NC(=O)[C@H](Cc2c[nH]c3ccccc23)NC(=O)[C@@H]2CSCC(=O)CSC[C@H](NC(=O)[C@H](CO)NC1=O)C(=O)N[C@@H](Cc1c[nH]c3ccccc13)C(=O)N[C@@H](CCC(N)=O)C(=O)N2
Turning to B7, in test [1], the “IC50 (pSTAT3)” value turned out to be 597 nM. Moreover, the Ki in test [3] came out at 201 nM.

B8: Compound 78 (peptide)
peptide: [3Amb]SCWQC[AEF][2Nal][αMeL]ER[3Pal]-NH2
modifications: lactam (positions not given here); linker 3-6 via CH2COCH2; not fully specified (bridges); printed as [(3-Aminomethyl)benzoyl](1c)*SC(2a)WQC(2a)[Y(2-aminoethoxy)][2-Nal][2-Me-Leu]E(1c)R[3-(3-Pyridyl)-Ala]-[NH2]
For B8, the “IC50 (pSTAT3)” value in test [1] was 0.132 nM. In test [2], this molecule came in with a Ki of 0.0205 nM.

B9: Compound 81 (peptide)
peptide: [4‑Aminomethyl‑phenylacetyl]SCWQC[AEF][2Nal][αMeL]ES-NH2
modifications: lactam (positions not given here); linker 3-6 via CH2COCH2; not fully specified (bridges); printed as [4-Aminomethyl-phenylacetyl](1c)*SC(2a)WQC(2a)[Y(2-aminoethoxy)][2-Nal][2-Me-Leu]E(1c)S-[NH2]
For the molecule B9, in test [1], the “IC50 (pSTAT3)” value was determined as 20.7 nM. In test [2], this molecule came in with a Ki of 0.318 nM.

B10: Compound 80 (peptide)
peptide: [4‑Aminomethyl‑phenylacetyl]SCWQC[AEF][2Nal][αMeL]E[dR]-NH2
modifications: lactam (positions not given here); linker 3-6 via CH2COCH2; not fully specified (bridges); printed as [4-Aminomethyl-phenylacetyl](1c)*SC(2a)WQC(2a)[Y(2-aminoethoxy)][2-Nal][2-Me-Leu]E(1c)[{d}R]-[NH2]
Take B10: the “IC50 (pSTAT3)” value in test [1] was 10.5 nM. This molecule also yielded a Ki in test [2] of 0.15 nM.

Take [4‑Aminomethyl‑phenylacetyl]SCWQC[AEF][2Nal][αMeL]E[Dab][3Pal]-NH2 (lactam N-10; linker 3-6 via 1,3‑dibromopropan‑2‑one(3)) [Compound 120]: the “IC50 (pSTAT3)” value in test [1] came to 54.2 pM. The Ki in test [2] turned out to be 0.00938 nM.

As for [3Amb]SCWQC[AEF][2Nal][αMeL]E[dR]-NH2 (lactam N-10; linker 3-6 via CH2COCH2) [Compound 41], the “IC50 (pSTAT3)” value in test [1] turned out to be 29.4 nM. In addition, the Ki in test [2] was found to be 2.31 nM.
